Test results published in patent US11957716B2 (Immatics Biotechnologies GmbH, priority 2021, dated 2024).

Experiments:
HLA-B*07:0 = HLA-B*07:0 (Homo sapiens, UniProt P01889); test: MHC binding assay, UV-ligand exchange ELISA; conditions: peptide exchange yield, binding to HLA-B*07:0
Source text: (§1) Candidate peptides for T cell based therapies according to the present invention were further tested for their MHC binding capacity (affinity). The individual peptide-MHC complexes were produced by UV-ligand exchange, where a UV-sensitive peptide is cleaved upon UV-irradiation and exchanged with the peptide of interest as analyzed. Only peptide candidates that can effectively bind and stabilize the peptide-receptive MHC molecules prevent dissociation of the MHC complexes. To determine the yield of the exchange reaction, an ELISA was performed based on the detection of the light chain (β2m) of stabilized MHC complexes. The assay was performed as generally described in Rodenko et al. (Rodenko et al., 2006).
(§2) 96 well MAXISorp plates (NUNC) were coated over night with 2 μg/ml streptavidin in PBS at room temperature, washed 4× and blocked for 1 h at 37° C. in 2% BSA containing blocking buffer. Refolded HLA-A*02:01/MLA-001 monomers served as standards, covering the range of 15-500 ng/ml. Peptide-MHC monomers of the UV-exchange reaction were diluted 100-fold in blocking buffer. Samples were incubated for 1 h at 37° C., washed four times, incubated with 2 μg/ml HRP conjugated anti-82m for 1 h at 37° C., washed again and detected with TMB solution that is stopped with […]. Absorption was measured at 450 nm. Candidate peptides that show a high exchange yield (preferably higher than 50%, most preferred higher than 75%) are generally preferred for a generation and production of antibodies or fragments thereof, and/or T cell receptors or fragments thereof, as they show sufficient avidity to the MHC molecules and prevent dissociation of the MHC complexes.

[1] = test system: HLA-A*01:01, HLA-A*02:01, HLA-A*03:01, HLA-A*24:02, HLA-B*07:02, HLA-B*08:01 and HLA-B*44:02; test: HLA alleles the peptides bind to (Table 7); type: binding, human; conditions: allotype from the group HLA-A*01:01, HLA-A*02:01, HLA-A*03:01, HLA-A*24:02, HLA-B*07:02, HLA-B*08:01, HLA-B*44:02
Source text: However, due to similarities in binding pattern such as the relevant anchoring positions some peptides bind to more than one allele, such an overlap is most likely, but not limited to, HLA-A*01 binding peptides also binding to HLA-B*15, HLA-A*03 binding peptides also binding to HLA-A*11, HLA-B*07 binding peptides also binding to HLA-B*35 and HLA-B*51.

HLA-A*03:01 = HLA-A*03:01 (Homo sapiens, UniProt P04439); test: MHC binding assay, UV-ligand exchange ELISA; conditions: peptide exchange yield, binding to HLA-A*03:01
Source text: as §1, §2

| Peptide exchange (HLA-B*07:0) | Peptide exchange (HLA-A*03:01) | Substance | Binders (HLA alleles the peptides according to the invention bind to) [1] |
| --- | --- | --- | --- |
| +++ (≥50% = +++) | – | 15 (SPVETRSLL; listed as Homo sapiens) [compound 15] | – |
| ++++ (≥75% = ++++) | – | 41 (APQPRSLAA; listed as Homo sapiens) [compound 41] | – |
| +++ (≥50% = +++) | – | 52 (SPLPHLGPL; listed as Homo sapiens) [compound 52] | – |
| ++++ (≥75% = ++++) | – | 55 (SPVSASWIL; listed as Homo sapiens) [compound 55] | – |
| +++ (≥50% = +++) | – | 59 (AVDLGVLEL; listed as Homo sapiens) [compound 59] | – |
| ++++ (≥75% = ++++) | – | 63 (MPANFETIGF; listed as Homo sapiens) [compound 63] | – |
| +++ (≥50% = +++) | – | 64 (LPTRSLPAF; listed as Homo sapiens) [compound 64] | – |
| ++ (≥20% = ++) | – | 66 (RPLILIRI; listed as Homo sapiens) [compound 66] | – |
| +++ (≥50% = +++) | – | 77 (YPDVPIGQL; listed as Homo sapiens) [compound 77] | – |
| +++ (≥50% = +++) | – | 78 (TPSHSTPSF; listed as Homo sapiens) [compound 78] | – |
| +++ (≥50% = +++) | – | 85 (LPHPVNSGL; listed as Homo sapiens) [compound 85] | – |
| +++ (≥50% = +++) | – | 89 (SPSSPLLLLA; listed as Homo sapiens) [compound 89] | – |
| ++++ (≥75% = ++++) | – | 93 (SPIGLSLIL; listed as Homo sapiens) [compound 93] | – |
| ++++ (≥75% = ++++) | – | 96 (HPRESLNMLVAF; listed as Homo sapiens) [compound 96] | – |
| ++++ (≥75% = ++++) | – | 100 (SPAPSLARFLSL; listed as Homo sapiens) [compound 100] | – |
| ++++ (≥75% = ++++) | – | 103 (RPWLSSPTGL; listed as Homo sapiens) [compound 103] | – |
| ++++ (≥75% = ++++) | – | 109 (MPKLFLTAC; listed as Homo sapiens) [compound 109] | – |
| ++++ (≥75% = ++++) | – | 110 (APSLARFLSL; listed as Homo sapiens) [compound 110] | – |
| ++++ (≥75% = ++++) | – | 111 (RPIWDVRSA; listed as Homo sapiens) [compound 111] | – |
| ++++ (≥75% = ++++) | – | 114 (VPHHLLSSV; listed as Homo sapiens) [compound 114] | – |

| Peptide exchange (HLA-B*07:0) | Peptide exchange (HLA-A*03:01) | Substance | Binders (HLA alleles the peptides according to the invention bind to) [1] |
| --- | --- | --- | --- |
| +++ (≥50% = +++) | – | 120 (APGPRSQGL; listed as Homo sapiens) [compound 120] | – |
| +++ (≥50% = +++) | – | 124 (SPSSNSREL; listed as Homo sapiens) [compound 124] | – |
| +++ (≥50% = +++) | – | 126 (NPELLVILL; listed as Homo sapiens) [compound 126] | – |
| +++ (≥50% = +++) | – | 129 (IPISIFKMA; listed as Homo sapiens) [compound 129] | – |
| ++++ (≥75% = ++++) | – | 134 (MPCTTILRI; listed as Homo sapiens) [compound 134] | – |
| ++++ (≥75% = ++++) | – | 137 (MPIQVLKGL; listed as Homo sapiens) [compound 137] | – |
| +++ (≥50% = +++) | – | 140 (QPAPQPLL; listed as Homo sapiens) [compound 140] | – |
| – | +++ (≥50% = +++) | 150 (IVFLLQQGEK; listed as Homo sapiens) [compound 150] | HLA-A*03:01 |
| – | ++++ (≥75% = ++++) | 151 (AVFVNWEQTKK; listed as Homo sapiens) [compound 151] | HLA-A*03:01 |
| – | ++++ (≥75% = ++++) | 152 (KIMEILNLK; listed as Homo sapiens) [compound 152] | HLA-A*03:01 |
| – | +++ (≥50% = +++) | 154 (TVTSAIVNR; listed as Homo sapiens) [compound 154] | HLA-A*03:01 |
| ++++ (≥75% = ++++) | – | 155 (MPWVLMSPF; listed as Homo sapiens) [compound 155] | – |
| +++ (≥50% = +++) | – | 156 (SLRVPSPAL; listed as Homo sapiens) [compound 156] | – |
| ++++ (≥75% = ++++) | – | 157 (APLRAGWAA; listed as Homo sapiens) [compound 157] | – |
| – | +++ (≥50% = +++) | 159 (ASAIPAGAK; listed as Homo sapiens) [compound 159] | HLA-A*03:01 |
| – | +++ (≥50% = +++) | 161 (ILAASFQAR; listed as Homo sapiens) [compound 161] | HLA-A*03:01 |
| +++ (≥50% = +++) | – | 162 (LPVHGPLPLLL; listed as Homo sapiens) [compound 162] | – |
| – | ++++ (≥75% = ++++) | 166 (VIFLHQPPK; listed as Homo sapiens) [compound 166] | HLA-A*03:01 |
| ++++ (≥75% = ++++) | – | 169 (RPQGVGPAA; listed as Homo sapiens) [compound 169] | – |
| – | +++ (≥50% = +++) | 174 (LSGPVTFLR; listed as Homo sapiens) [compound 174] | HLA-A*03:01 |

| Peptide exchange (HLA-B*07:0) | Peptide exchange (HLA-A*03:01) | Substance | Binders (HLA alleles the peptides according to the invention bind to) [1] |
| --- | --- | --- | --- |
| ++++ (≥75% = ++++) | – | 175 (MPFLKVPPL; listed as Homo sapiens) [compound 175] | – |
| – | ++++ (≥75% = ++++) | 178 (SLFGGLFTR; listed as Homo sapiens) [compound 178] | HLA-A*03:01 |
| – | ++++ (≥75% = ++++) | 179 (MIFSGVFLR; listed as Homo sapiens) [compound 179] | HLA-A*03:01 |
| +++ (≥50% = +++) | – | 182 (RPSLPCRSF; listed as Homo sapiens) [compound 182] | – |
| ++ (≥20% = ++) | – | 184 (VVHGGMSIF; listed as Homo sapiens) [compound 184] | – |
| ++++ (≥75% = ++++) | – | 185 (MPAFLSRASAL; listed as Homo sapiens) [compound 185] | – |
| – | ++++ (≥75% = ++++) | 187 (RLCPAAPTGK; listed as Homo sapiens) [compound 187] | HLA-A*03:01 |
| – | +++ (≥50% = +++) | 190 (STQSSLLYLK; listed as Homo sapiens) [compound 190] | HLA-A*03:01 |
| ++++ (≥75% = ++++) | – | 191 (APLLPGPAA; listed as Homo sapiens) [compound 191] | – |
| ++++ (≥75% = ++++) | – | 192 (IPLHFSTAF; listed as Homo sapiens) [compound 192] | – |
| – | +++ (≥50% = +++) | 193 (ILQLITVNR; listed as Homo sapiens) [compound 193] | HLA-A*03:01 |
| – | ++++ (≥75% = ++++) | 198 (MTYQQPFSNR; listed as Homo sapiens) [compound 198] | HLA-A*03:01 |
| – | +++ (≥50% = +++) | 202 (KLLLLSSVK; listed as Homo sapiens) [compound 202] | HLA-A*03:01 |
| – | +++ (≥50% = +++) | 203 (AILVPQPPK; listed as Homo sapiens) [compound 203] | HLA-A*03:01 |
| – | +++ (≥50% = +++) | 204 (VVRASSGLK; listed as Homo sapiens) [compound 204] | HLA-A*03:01 |
| – | ++ (≥20% = ++) | 205 (SLIPIVPFKS; listed as Homo sapiens) [compound 205] | HLA-A*03:01 |
| – | ++++ (≥75% = ++++) | 209 (AILLPQLPK; listed as Homo sapiens) [compound 209] | HLA-A*03:01 |
| – | ++++ (≥75% = ++++) | 213 (TLLSFKTVLFK; listed as Homo sapiens) [compound 213] | HLA-A*03:01 |
